We go through four molecules from US20250289897A1 (Eli Lilly, published 2025).

By Kd is commonly meant the constant that tells how readily two partners part at equilibrium. Lower therefore signals tighter binding. For orientation: EC50 (read off the curve) means the concentration giving half of the maximal effect.

Test [1] has as its target T1, neonatal Fc receptor (FcRn) on FcRn Affinity Column Gen2 (Roche, Cat #09430857001) (UniProt P55899 24-297; P61769 21-119, limits assumed). Kind of test: FcRn-HPLC (Roche FcRn Affinity Column Gen2), peak width at 50% peak height.
Description: (§1) Stock antibody solutions were diluted to 1 mg/mL into 20 mM MES, 140 mM NaCl, pH5.5. […] 20 μμL antibody injections were made followed by 10 minute column wash with 20 mM MES, 140 mM NaCl, pH5.5. Antibodies were then eluted by pH gradient elution into 20 mM Tris, 140 mM NaCl, pH8.8 over 90 minutes. Chromatograms were blank-subtracted to remove baseline drift.
In test [2] the target is T1, neonatal Fc receptor (FcRn) on FcRn …. Kind of test: FcRn-HPLC (Roche FcRn Affinity Column Gen2), pH gradient 5.5 to 8.8 over 90 minutes.
Description: as §1
In test [3] the target is T2, human FcγRI (CD64) extracellular domain (human, UniProt P12314 16-292).
T2 construct: extracellular domain; also called FcγRI ECD
T2 sequence (P12314 16-292): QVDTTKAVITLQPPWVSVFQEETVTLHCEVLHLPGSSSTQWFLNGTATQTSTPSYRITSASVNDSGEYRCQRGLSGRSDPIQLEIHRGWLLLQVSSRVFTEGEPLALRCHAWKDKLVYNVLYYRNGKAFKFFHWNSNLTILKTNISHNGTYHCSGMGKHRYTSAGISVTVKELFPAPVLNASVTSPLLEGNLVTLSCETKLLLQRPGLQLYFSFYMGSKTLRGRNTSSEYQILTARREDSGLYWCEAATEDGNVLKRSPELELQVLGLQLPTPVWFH
Put plainly: SPR at 25 C (Biacore T200), antibody captured on Protein A chip, FcγR ECD as analyte; average of 3, SD 0.4. Background: Surface plasmon resonance follows binding to a sensor surface in real time, without labels.
Description: (§2) Briefly, the surfaces of all 4 flow cells were activated by injecting a 1:1 mixture of EDC/NHS for 7 minutes at 10 μL/minute. […] Un-reacted sites were blocked with a 7-minute injection of ethanolamine at 10 μL/minute. Injections of 2×10 μL of glycine pH 1.5 were used to remove any noncovalently associated protein.
For FcγRI binding, antibodies were diluted to 2.5 g/mL in running buffer (1x HBS-EP+, Teknova P/N H8022), and approximately 150 RU of each antibody was captured in flow cells 2 through 4 (RUcaptured). FC1 was the reference flow cell, therefore, no antibody was captured in FC1. […] Duplicate injections of each concentration were injected over all FCs at 40 μL/minute for 120 seconds followed by a 1200 second dissociation phase. Regeneration was performed by injecting 15 μL of 10 mM glycine pH 1.5 at 30 μL/minute over all FCs. Reference-subtracted data was collected as FC2-FC1, FC3-FC1, and FC4-FC1. The measurements were obtained at 25° C. The affinity (KD) was calculated using either steady state equilibrium analysis with the Scrubber 2 Biacore® Evaluation Software or a “1:1 (Langmuir) binding” model in BIA Evaluation.

Test [4] concerns the target T3, human FcγRIIIA_158F (CD16a) extracellular domain (human, UniProt P08637 17-208).
T3 construct: extracellular domain
Kind of test: SPR at 25 C (Biacore T200), antibody captured on Protein A chip, FcγR ECD as analyte, steady state; average of 3, SD 0.03.
Description: as §2
(§3) For FcγRIIa, FcγRIIb, and FcγRIIIa binding, antibodies were diluted to 5 μg/mL in running buffer, and approximately 500 RU is captured in flow cells 2 through 4 (RUcaptured). FC1 is the reference flow cell. […] Duplicate injections of each concentration were injected over all FCs at 40 L/minute for 60 seconds followed by a 120 second dissociation phase. Regeneration was performed by injecting 15μL of 10 mM glycine pH 1.5 at 30 μL/minute over all FCs.
(§4) Reference-subtracted data was collected as FC2-FC1, FC3-FC1, and FC4-FC1. The measurements were obtained at 25° C. The affinity (KD) was calculated using the steady state equilibrium analysis with the Scrubber 2 Biacore® Evaluation Software.

Test [5] addresses T4, human FcγRIIb (CD32b) extracellular domain (human, UniProt P31994 43-217).
T4 construct: extracellular domain
T4 sequence (looked up): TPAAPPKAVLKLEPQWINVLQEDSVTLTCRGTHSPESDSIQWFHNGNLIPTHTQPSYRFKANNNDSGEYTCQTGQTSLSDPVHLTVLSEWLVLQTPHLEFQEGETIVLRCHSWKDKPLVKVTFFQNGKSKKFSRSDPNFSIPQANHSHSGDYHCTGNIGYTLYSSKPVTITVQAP
Put plainly: SPR at 25 C (Biacore T200), antibody captured on Protein A chip, FcγR ECD as analyte, steady state; average of 3, SD 0.17.
Description: as §2, §3, §4

Test [6] has as its target T5, Human C1q (MS Biomedical) (human, UniProt P02745 23-245; P02746 28-253; P02747 29-245).
T5 construct: the three subunits are from general knowledge; also called complement component C1q; Clq
Kind of test: C1q ELISA, plate coated with the antibody at 0.19-10 ug/mL, human C1q added at 10 ug/mL, sheep anti-human C1q-HRP detection, OD450. On the technique in general: In an ELISA, binding on a coated surface is turned into a signal by an enzyme label.
Description: Testing was performed in duplicate wells. The plate was sealed and incubated overnight at 4° C. The coating reagent was removed from each well and 200 μL/well of casein blocking reagent (Thermo) was added. The plate was sealed and incubated for 2 hours at room temperature (RT). Each well was washed 3 times with wash buffer (1xTBE with 0.05% Tween 20). One hundred microliters per well of Human Clq (MS Biomedical) at 10 μg/mL diluted in casein blocking reagent was added and incubated for 3 hours at RT. The plate was then washed three times with wash buffer before 100 L/well of a 1:800 dilution of Sheep anti-human C1q-HRP (Abcam #ab46191) in casein blocker was added and incubated for 1 hour at RT. The plate was washed 6 times with wash buffer, and 100 μL/well of TMB Substrate (Pierce) was added to each well and incubated for 7 minutes. One hundred microliters of 1 N HCl was added to each well to stop the reaction.

The target in test [7] is T6, Recombinant LEPR extracellular domain fused to hIgG1-Fc (human LEPR ECD-TEV-Fc) (human).
T6 construct: The entry holds ECD, TEV site, human IgG1 Fc and a His tag in one chain; also called LEPR-Fc; hLEPR-TEV-hIgG1Fc
T6 sequence (chain, as listed by the source limits assumed): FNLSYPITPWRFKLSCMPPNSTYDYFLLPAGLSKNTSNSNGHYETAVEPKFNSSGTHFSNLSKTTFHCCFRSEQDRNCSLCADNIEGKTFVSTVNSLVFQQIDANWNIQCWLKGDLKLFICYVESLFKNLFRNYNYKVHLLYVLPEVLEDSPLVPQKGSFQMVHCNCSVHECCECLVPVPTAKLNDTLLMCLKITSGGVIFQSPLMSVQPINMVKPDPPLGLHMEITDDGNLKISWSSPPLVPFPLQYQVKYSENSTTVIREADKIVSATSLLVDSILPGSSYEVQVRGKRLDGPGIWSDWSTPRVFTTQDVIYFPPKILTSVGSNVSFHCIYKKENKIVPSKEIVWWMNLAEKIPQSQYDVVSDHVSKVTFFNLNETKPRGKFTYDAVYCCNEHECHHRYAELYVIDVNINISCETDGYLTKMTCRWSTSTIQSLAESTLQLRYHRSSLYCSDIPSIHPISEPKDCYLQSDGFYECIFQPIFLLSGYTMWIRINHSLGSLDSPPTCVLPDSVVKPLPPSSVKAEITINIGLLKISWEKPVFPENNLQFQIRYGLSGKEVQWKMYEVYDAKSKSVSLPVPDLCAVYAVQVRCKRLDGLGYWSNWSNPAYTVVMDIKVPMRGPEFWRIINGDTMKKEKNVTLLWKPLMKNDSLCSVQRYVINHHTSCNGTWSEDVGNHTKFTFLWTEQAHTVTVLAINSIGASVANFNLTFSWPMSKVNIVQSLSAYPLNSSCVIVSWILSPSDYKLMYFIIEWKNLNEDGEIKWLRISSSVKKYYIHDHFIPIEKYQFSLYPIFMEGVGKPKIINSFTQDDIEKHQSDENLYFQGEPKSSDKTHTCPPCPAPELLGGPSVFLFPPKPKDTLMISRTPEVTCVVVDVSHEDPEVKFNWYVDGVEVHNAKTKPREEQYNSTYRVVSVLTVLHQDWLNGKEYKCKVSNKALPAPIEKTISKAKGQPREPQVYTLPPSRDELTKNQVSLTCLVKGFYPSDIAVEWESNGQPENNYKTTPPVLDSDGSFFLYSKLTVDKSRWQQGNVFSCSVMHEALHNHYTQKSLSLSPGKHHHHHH
Put plainly: ELISA, plate coated with human LEPR ECD (SEQ ID NO:30) at 2 ug/mL, antibody titrated 1:3 from 50 ug/mL, goat anti-human kappa AP detection, OD560.
Description: The plate was then washed. Antibodies were titrated, starting at 50 μg/mL in Casein with 1:3 serial dilutions across the plate. Plate was incubated at RT for 1 hr. The plate is then washed.
The mixture was incubated at RT for 1 hr. The plate is then washed.
The curves indicate relative binding of IgG antibodies to human LEPR. The LEPR is bound to an ELISA plate and the antibodies are titrated in 3-fold increments starting at 50 μg/mL.

T1 sequence (P55899 24-297 limits assumed, chain 1 of 2): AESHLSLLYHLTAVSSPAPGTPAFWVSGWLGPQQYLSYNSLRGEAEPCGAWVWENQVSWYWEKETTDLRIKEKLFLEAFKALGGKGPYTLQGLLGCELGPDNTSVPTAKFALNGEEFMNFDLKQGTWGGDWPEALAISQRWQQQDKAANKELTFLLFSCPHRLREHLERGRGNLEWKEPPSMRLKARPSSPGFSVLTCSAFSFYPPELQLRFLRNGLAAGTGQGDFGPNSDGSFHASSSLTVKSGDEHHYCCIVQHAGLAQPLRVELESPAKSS
T1 sequence (P61769 21-119 limits assumed, chain 2 of 2): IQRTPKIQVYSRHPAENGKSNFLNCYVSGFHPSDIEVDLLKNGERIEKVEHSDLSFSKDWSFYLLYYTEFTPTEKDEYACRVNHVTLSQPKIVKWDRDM
T3 sequence (P08637 17-208): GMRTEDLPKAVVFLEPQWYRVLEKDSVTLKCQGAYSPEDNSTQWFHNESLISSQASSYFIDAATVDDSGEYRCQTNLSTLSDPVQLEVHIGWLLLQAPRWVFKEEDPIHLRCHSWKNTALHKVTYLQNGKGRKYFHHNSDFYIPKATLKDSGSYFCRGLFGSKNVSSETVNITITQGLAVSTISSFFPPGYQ
T5 sequence (P02745 23-245 limits assumed, chain 1 of 3): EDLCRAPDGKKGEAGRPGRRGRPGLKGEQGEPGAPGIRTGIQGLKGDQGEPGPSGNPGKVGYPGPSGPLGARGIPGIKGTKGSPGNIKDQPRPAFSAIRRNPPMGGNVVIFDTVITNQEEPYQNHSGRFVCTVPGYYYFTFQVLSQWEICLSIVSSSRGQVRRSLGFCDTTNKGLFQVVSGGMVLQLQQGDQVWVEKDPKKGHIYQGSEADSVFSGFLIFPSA
T5 sequence (P02746 28-253 limits assumed, chain 2 of 3): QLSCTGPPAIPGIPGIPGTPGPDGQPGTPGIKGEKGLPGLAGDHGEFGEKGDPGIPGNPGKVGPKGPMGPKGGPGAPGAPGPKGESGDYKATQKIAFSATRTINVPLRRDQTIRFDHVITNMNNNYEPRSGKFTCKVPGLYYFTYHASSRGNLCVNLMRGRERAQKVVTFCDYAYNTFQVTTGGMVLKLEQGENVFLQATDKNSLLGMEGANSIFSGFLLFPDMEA
T5 sequence (P02747 29-245 limits assumed, chain 3 of 3): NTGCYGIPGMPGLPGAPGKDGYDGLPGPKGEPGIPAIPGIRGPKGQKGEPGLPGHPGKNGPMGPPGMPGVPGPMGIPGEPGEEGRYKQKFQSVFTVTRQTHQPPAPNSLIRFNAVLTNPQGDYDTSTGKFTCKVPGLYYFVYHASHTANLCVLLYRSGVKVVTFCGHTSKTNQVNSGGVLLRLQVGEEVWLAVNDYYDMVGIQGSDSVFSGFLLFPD

B1: Antibody A-IgG1 (antibody)
heavy: not shown
light: DIQMTQSPSFLSASVGDRVTITCRASQGISSSLAWYQQKPGKAPKLLIYTASTLQSGVPSRFSGSGSGTEFTLTISSLQPEDFATYYCQQLIYYPFTFGQGTKVEIKRTVAAPSVFIFPPSDEQLKSGTASVVCLLNNFYPREAKVQWKVDNALQSGNSQESVTEQDSKDSTYSLSSTLTLSKADYEKHKVYACEVTHQGLSSPVTKSFNRGEC
notes: there they lie 3 residues further on); also called Antibody A-IgG1 control; Antibody-A with non-modified IgG1
Turning to B1, the “Peak Width” value in test [1] was determined as 1.7 min. In test [2], the “Retention Time” value is 69.5 min. The Kd was 0.0676 nM in test [3], 1560 nM in test [4] and 3.61 µM in test [5]. Also, the “EC50 (read off the curve)” value in test [6] is approximately 1 µg/mL.

B2: Antibody A IgG1-YTE (antibody)
heavy: EVQLLESGGGLVQPGGSLRLSCAASGFTFSSFAMSWVRQAPGKGLEWVSAISGSGGSTYSADSVRGRFTISRDNSKNTLYLQMNSLRAEDTAVYYCAKDQGDWDFLFDYWGQGTLVTVSSASTKGPSVFPLAPSSKSTSGGTAALGCLVKDYFPEPVTVSWNSGALTSGVHTFPAVLQSSGLYSLSSVVTVPSSSLGTQTYICNVNHKPSNTKVDKRVEPKSCDKTHTCPPCPAPELLGGPSVFLFPPKPKDTLYITREPEVTCVVVDVSHEDPEVKFNWYVDGVEVHNAKTKPREEQYNSTYRVVSVLTVLHQDWLNGKEYKCKVSNKALPAPIEKTISKAKGQPREPQVYTLPPSREEMTKNQVSLTCLVKGFYPSDIAVEWESNGQPENNYKTTPPVLDSDGSFFLYSKLTVDKSRWQQGNVFSCSVMHEALHNHYTQKSLSLSPGK
light: DIQMTQSPSFLSASVGDRVTITCRASQGISSSLAWYQQKPGKAPKLLIYTASTLQSGVPSRFSGSGSGTEFTLTISSLQPEDFATYYCQQLIYYPFTFGQGTKVEIKRTVAAPSVFIFPPSDEQLKSGTASVVCLLNNFYPREAKVQWKVDNALQSGNSQESVTEQDSKDSTYSLSSTLTLSKADYEKHKVYACEVTHQGLSSPVTKSFNRGEC
With B2, the “Peak Width” value in test [1] was 2.8 min. Moreover, the “Retention Time” value in test [2] stood at 80.3 min.

B3: Antibody A IgG4PAA-YTE (antibody)
heavy: EVQLLESGGGLVQPGGSLRLSCAASGFTFSSFAMSWVRQAPGKGLEWVSAISGSGGSTYSADSVRGRFTISRDNSKNTLYLQMNSLRAEDTAVYYCAKDQGDWDFLFDYWGQGTLVTVSSASTKGPSVFPLAPCSRSTSESTAALGCLVKDYFPEPVTVSWNSGALTSGVHTFPAVLQSSGLYSLSSVVTVPSSSLGTKTYTCNVDHKPSNTKVDKRVESKYGPPCPPCPAPEAAGGPSVFLFPPKPKDTLYITREPEVTCVVVDVSQEDPEVQFNWYVDGVEVHNAKTKPREEQFNSTYRVVSVLTVLHQDWLNGKEYKCKVSNKGLPSSIEKTISKAKGQPREPQVYTLPPSQEEMTKNQVSLTCLVKGFYPSDIAVEWESNGQPENNYKTTPPVLDSDGSFFLYSRLTVDKSRWQEGNVFSCSVMHEALHNHYTQKSLSLSLGK
light: DIQMTQSPSFLSASVGDRVTITCRASQGISSSLAWYQQKPGKAPKLLIYTASTLQSGVPSRFSGSGSGTEFTLTISSLQPEDFATYYCQQLIYYPFTFGQGTKVEIKRTVAAPSVFIFPPSDEQLKSGTASVVCLLNNFYPREAKVQWKVDNALQSGNSQESVTEQDSKDSTYSLSSTLTLSKADYEKHKVYACEVTHQGLSSPVTKSFNRGEC
notes: VH and VL matched to Antibody A; Positions are Fc numbering as printed (EU index implied)
Regarding B3, in test [1], the “Peak Width” value was 2.7 min. The “Retention Time” value in test [2] stood at 79.6 min.

B4: Antibody D (antibody, human IgG1, kappa, L234A L235A, V domains shown)
VH: EVQLLESGGGLVQPGGSLRLSCAASGFTFSSFAMSWVRQAPGKGLEWVSAISGSGGSTYSADSVRGRFTISRDNSKNTLYLQMNSLRAEDTAVYYCAKDQGDWDFLFDYWGQGTLVTVSS
VL: DIQMTQSPSFLSASVGDRVTITCRASQGISSSLAWYQQKPGKAPKLLIYTASTLQSGVPSRFSGSGSGTEFTLTISSLQPEDFATYYCQQLNYYPFTFGQGTKVEIKR
notes: Same HC as Antibody A
On to B4, for which the 50% effective concentration (EC50 (read off the curve)) in test [7] was approximately 0.07 µg/mL.
